Test results taken from the supplement of paper PMC11246515.
± gives the standard deviation of the averaged measurements.

Test: total protein half-life in vivo (active degradation + dilution); higher = more stable protein
[1] = E. coli NCM3722 delta-clpP delta-lon delta-hslV, growth: N-lim chemostat, doubling time 6 h
[2] = E. coli NCM3722 delta-clpP, growth: N-lim chemostat, doubling time 6 h
[3] = E. coli NCM3722 delta-hslV, growth: N-lim chemostat, doubling time 6 h
[4] = E. coli NCM3722 delta-lon, growth: N-lim chemostat, doubling time 6 h
[5] = E. coli NCM3722 delta-smpB, growth: N-lim chemostat, doubling time 6 h
[6] = wild type E. coli NCM3722, growth: C-lim chemostat, doubling time 3 h
[7] = wild type E. coli NCM3722, growth: C-lim chemostat, doubling time 6 h
[8] = wild type E. coli NCM3722, growth: C-lim chemostat, doubling time 12 h
[9] = wild type E. coli NCM3722, growth: N-lim chemostat, doubling time 6 h
[10] = wild type E. coli NCM3722, growth: N-lim chemostat, doubling time 12 h
[11] = wild type E. coli NCM3722, growth: P-lim chemostat, doubling time 6 h
[12] = wild type E. coli NCM3722, growth: P-lim chemostat, doubling time 12 h

| Sequence | total protein half-life in vivo [1] [h] | total protein half-life in vivo [2] [h] | total protein half-life in vivo [3] [h] | total protein half-life in vivo [4] [h] | total protein half-life in vivo [5] [h] | total protein half-life in vivo [6] [h] | total protein half-life in vivo [7] [h] | total protein half-life in vivo [8] [h] | total protein half-life in vivo [9] [h] | total protein half-life in vivo [10] [h] | total protein half-life in vivo [11] [h] | total protein half-life in vivo [12] [h] |
| --- | --- | --- | --- | --- | --- | --- | --- | --- | --- | --- | --- | --- |
| MKNKLPPFIEIYRALIATPSISATEEALDQSNADLITLLADWFKDLGFNVEVQPVPGTRNKFNMLASIGQGAGGLLLAGHTDTVPFDDGRWTRDPFTLTEHDGKLYGLGTADMKGFFAFILDALRDVDVTKLKKPLYILATADEETSMAGARYFAETTALRPDCAIIGEPTSLQPVRAHKGHISNAIRIQGQSGHSSDPARGVNAIELMHDAIGHILQLRDNLKERYHYEAFTVPYPTLNLGHIHGGDASNRICACCELHMDIRPLPGMTLNELNGLLNDALAPVSERWPGRLTVDELHPPIPGYECPPNHQLVEVVEKLLGAKTEVVNYCTEAPFIQTLCPTLVLGPGSINQAHQPDEYLETRFIKPTRELITQVIHHFCWH | 4.97 ± 0.62 | 4.73 ± 0.34 | 4.636 ± 0.017 | 4.68 ± 0.19 | 4.29 ± 0.23 | 3.27 ± 0.46 | 5.46 ± 0.24 | 10.9 ± 2.2 | 4.68 ± 0.058 | 7.38 ± 0.21 | 5.95 ± 0.067 | 11 ± 0.37 |
| MNIRDLEYLVALAEHRHFRRAADSCHVSQPTLSGQIRKLEDELGVMLLERTSRKVLFTQAGMLLVDQARTVLREVKVLKEMASQQGETMSGPLHIGLIPTVGPYLLPHIIPMLHQTFPKLEMYLHEAQTHQLLAQLDSGKLDCVILALVKESEAFIEVPLFDEPMLLAIYEDHPWANRECVPMADLAGEKLLMLEDGHCLRDQAMGFCFEAGADEDTHFRATSLETLRNMVAAGSGITLLPALAVPPERKRDGVVYLPCIKPEPRRTIGLVYRPGSPLRSRYEQLAEAIRARMDGHFDKVLKQAV [P0ACQ4] | 6.42 ± 0.14 | 6.57 ± 1.4 | 4.79 ± 0.37 | 4.56 ± 0.12 | 4.11 ± 0.24 | 2.62 ± 0.37 | 5.1 ± 0.76 | 9.67 ± 2.1 | 4.51 ± 0.26 | 10.4 ± 2.9 | 4.768 ± 0.012 | 9.98 ± 0.13 |
| MIQPISGPPPGQPPGQGDNLPSGTGNQPLSSQQRTSLESLMTKVTSLTQQQRAELWAGIRHDIGLSGDSPLLSRHFPAAEHNLAQRLLAAQKSHSARQLLAQLGEYLRLGNNRQAVTDYIRHNFGQTPLNQLSPEQLKTILTLLQEGKMVIPQPQQREATDRPLLPAEHNALKQLVTKLAAATGEPSKQIWQSMLELSGVKDGELIPAKLFNHLVTWLQARQTLSQQNTPTLESLQMTLKQPLDASELAALSAYIQQKYGLSAQSSLSSAQAEDILNQLYQRRVKGIDPRVMQPLLNPFPPMMDTLQNMATRPALWILLVAIILMLVWLVR | 3.57 ± 0.29 | 3.889 ± 0.021 | 3.71 ± 0.25 | 3.18 ± 0.34 | 3.56 ± 0.12 | 2.64 ± 0.22 | 4.57 ± 0.41 | 6.56 | 3.65 ± 0.16 | 5.38 ± 0.4 | 3.705 ± 0.012 | 6.51 ± 0.24 |
| MDIFISKKMRNFILLAQTNNIARAAEKIHMTASPFGKSIAALEEQIGYTLFTRKDNNISLNKAGQELYQKLFPVYQRLSAIDNEIHNSGRRSREIVIGIDNTYPTIIFDQLISLGDKYEGVTAQPVEFSENGVIDNLFDRQLDFIISPQHVSARVQELENLTISELPPLRLGFLVSRRYEERQEQELLQELPWLQMRFQNRANFEAMIDANMRPCGINPTIIYRPYSFMAKISAVERGHFLTVIPHFAWRLVNPATLKYFDAPHRPMYMQEYLYSIRNHRYTATMLQHIAEDRDGTSH | 5.12 | – | – | – | – | – | – | – | – | 9.66 | – | – |
| MLLATALLIVGLLLVVYSADRLVFAASILCRTFGIPPLIIGMTVVSIGTSLPEVIVSLAASLHEQRDLAVGTALGSNIINILLILGLAALVRPFTVHSDVLRRELPLMLLVSVVAGSVLYDGQLSRSDGIFLLFLAVLWLLFIVKLARQAERQGTDSLTREQLAELPRDGGLPVAFLWLGIALIIMPVATRMVVDNATVLANYFAISELTMGLTAIAIGTSLPELATAIAGVRKGENDIAVGNIIGANIFNIVIVLGLPALITPGEIDPLAYSRDYSVMLLVSIIFALLCWRRSPQPGRGVGVLLTGGFIVWLAMLYWLSPILVE | 4.93 | – | – | – | – | – | – | – | – | – | – | – |
| MSSRKELANAIRALSMDAVQKAKSGHPGAPMGMADIAEVLWRDFLKHNPQNPSWADRDRFVLSNGHGSMLIYSLLHLTGYDLPMEELKNFRQLHSKTPGHPEVGYTAGVETTTGPLGQGIANAVGMAIAEKTLAAQFNRPGHDIVDHYTYAFMGDGCMMEGISHEVCSLAGTLKLGKLIAFYDDNGISIDGHVEGWFTDDTAMRFEAYGWHVIRDIDGHDAASIKRAVEEARAVTDKPSLLMCKTIIGFGSPNKAGTHDSHGAPLGDAEIALTREQLGWKYAPFEIPSEIYAQWDAKEAGQAKESAWNEKFAAYAKAYPQEAAEFTRRMKGEMPSDFDAKAKEFIAKLQANPAKIASRKASQNAIEAFGPLLPEFLGGSADLAPSNLTLWSGSKAINEDAAGNYIHYGVREFGMTAIANGISLHGGFLPYTSTFLMFVEYARNAVRMAALMKQRQVMVYTHDSIGLGEDGPTHQPVEQVASLRVTPNMSTWRPCDQVESAVAWKYGVERQDGPTALILSRQNLAQQERTEEQLANIARGGYVLKDCAGQPELIFIATGSEVELAVAAYEKLTAEGVKARVVSMPSTDAFDKQDAAYRESVLPKAVTARVAVEAGIADYWYKYVGLNGAIVGMTTFGESAPAELLFEEFGFTVDNVVAKAKELL | 3.63 ± 0.31 | 3.35 ± 0.19 | 3.03 ± 0.057 | 3.47 ± 0.1 | 3.033 ± 0.021 | 3.22 ± 0.077 | 5.19 ± 0.23 | 9.96 ± 0.12 | 3.15 ± 0.11 | 4.48 ± 0.056 | 5.65 ± 0.089 | 10.7 ± 0.21 |
| MLVSCAMRLHSGVFPDYAEKLPQEEKMEKEDSFPQRVWQIVAAIPEGYVTTYGDVAKLAGSPRAARQVGGVLKRLPEGSTLPWHRVVNRHGTISLTGPDLQRQRQALLAEGVMVSGSGQIDLQRYRWNY [P0AFP2] | 5.49 ± 0.093 | – | – | – | – | – | 4.04 | 3.96 | – | – | – | – |
| MISDIRKDAEVRMDKCVEAFKTQISKIRTGRASPSLLDGIVVEYYGTPTPLRQLASVTVEDSRTLKINVFDRSMSPAVEKAIMASDLGLNPNSAGSDIRVPLPPLTEERRKDLTKIVRGEAEQARVAVRNVRRDANDKVKALLKDKEISEDDDRRSQDDVQKLTDAAIKKIEAALADKEAELMQF [P0A805] | 4.75 ± 0.095 | 4.0455 ± 0.00085 | 4.18 ± 0.071 | 5.16 ± 0.078 | 3.87 ± 0.05 | 2.851 ± 0.0093 | 4.84 ± 0.37 | 8.3 ± 0.69 | 3.38 ± 0.24 | 5.74 ± 0.96 | 5.04 ± 0.18 | 9.21 ± 0.22 |
